The target of assay [1] is HIV-1 integrase with methionine preceding the N-terminal phenylalanine (IN MF), full-length (HIV-1 (NL4-3)). Briefly: AUC; sedimentation velocity, 25 °C, 40,000 rpm, 20 mM HEPES-NaOH pH 7.5, 1 M NaCl, 7 mM CHAPS, 10 µM ZnOAc2, 10 µM β-mercaptoethanol; c(s) model in SEDFIT; self-association.
Assay [2] has the same target. Briefly: AUC; sedimentation equilibrium, 4 °C, 20 mM HEPES-NaOH pH 7.5, 1 M NaCl, 7 mM CHAPS, 10 µM ZnOAc2, 10 µM β-mercaptoethanol; global fit at 16, 20, 24 krpm (SEDPHAT); dimer to monomers.
For assay [3] the target is unchanged. The assay can be described thus: AUC; sedimentation equilibrium, 4 °C, same data and buffer as the monomer-dimer fit; attempted fit of a dimer-tetramer equilibrium: tetramer to dimers.
For assay [4] the target is unchanged. Briefly: SEC-MALS; Superdex 200 10/300, 25 °C, 20 mM HEPES-NaOH pH 7.5, 500 mM-1 M NaCl, 7 mM CHAPS, 10 µM ZnOAc2, 10 µM β-mercaptoethanol; eluted concentrations ~8-10 µM (IN 1F, IN MF); self-association. For orientation: Size exclusion chromatography separates by hydrodynamic size, large species first.

The source of these data is paper PMC7457537.

Usually stoichiometry N stands for the number of molecules, sites or subunits per partner or assembly. For orientation: pKd means the Kd on a negative log10 scale, so that one unit is a factor of ten.

pKd: −log10 of the molar value.

“HIV-1 integrase with methionine preceding the N-terminal phenylalanine (IN MF), full-length (enzyme)”: the stoichiometry N in assay [1] and in assay [4] was 2 throughout. Besides, the pKd in assay [2] is 3.90; in assay [3], less than 3.00.
